The chains are these.
B1: PREP_HUMAN (protein, UniProt Q5JRX3 29-1037, looked up)
Presequence protease, …: NSNRACERALQYKLGDKIHGFTVNQVTSVPELFLTAVKLTHDDTGARYLHLAREDTNNLFSVQFRTTPMDSTGVPHILEHTVLCGSQKYPCRDPFFKMLNRSLSTFMNAFTASDYTLYPFSTQNPKDFQNLLSVYLDATFFPCLRELDFWQEGWRLEHENPSDPQTPLVFKGVVFNEMKGAFTDNERIFSQHLQNRLLPDHTYSVVSGGDPLCIPELTWEQLKQFHATHYHPSNARFFTYGNFPLEQHLKQIHEEALSKFQKIEPSTVVPAQTPWDKPREFQITCGPDSFATDPSKQTTISVSFLLPDITDTFEAFTLSLLSSLLTSGPNSPFYKALIESGLGTDFSPDVGYNGYTREAYFSVGLQGIAEKDIETVRSLIDRTIDEVVEKGFEDDRIEALLHKIEIQMKHQSTSFGLMLTSYIASCWNHDGDPVELLKLGNQLAKFRQCLQENPKFLQEKVKQYFKNNQHKLTLSMRPDDKYHEKQAQVEATKLKQKVEALSPGDRQQIYEKGLELRSQQSKPQDASCLPALKVSDIEPTIPVTELDVVLTAGDIPVQYCAQPTNGMVYFRAFSSLNTLPEELRPYVPLFCSVLTKLGCGLLDYREQAQQIELKTGGMSASPHVLPDDSHMDTYEQGVLFSSLCLDRNLPDMMQLWSEIFNNPCFEEEEHFKVLVKMTAQELANGIPDSGHLYASIRAGRTLTPAGDLQETFSGMDQVRLMKRIAEMTDIKPILRKLPRIKKHLLNGDNMRCSVNATPQQMPQTEKAVEDFLRSIGRSKKERRPVRPHTVEKPVPSSSGGDAHVPHGSQVIRKLVMEPTFKPWQMKTHFLMPFPVNYVGECIRTVPYTDPDHASLKILARLMTAKFLHTEIREKGGAYGGGAKLSHNGIFTLYSYRDPNTIETLQSFGKAVDWAKSGKFTQQDIDEAKLSVFSTVDAPVAPSDKGMDHFLYGLSDEMKQAHREQLFAVSHDKLLAVSDRYLGTGKSTHGLAILGPENPKIAKDPSWIIQ
B2: SAFB1_HUMAN (protein, UniProt Q15424 2-915, looked up)
Scaffold attachment factor B1: AETLSGLGDSGAAGAAALSSASSETGTRRLSDLRVIDLRAELRKRNVDSSGNKSVLMERLKKAIEDEGGNPDEIEITSEGNKKTSKRSSKGRKPEEEGVEDNGLEENSGDGQEDVETSLENLQDIDIMDISVLDEAEIDNGSVADCVEDDDADNLQESLSDSRELVEGEMKELPEQLQEHAIEDKETINNLDTSSSDFTILQEIEEPSLEPENEKILDILGETCKSEPVKEESSELEQPFAQDTSSVGPDRKLAEEEDLFDSAHPEEGDLDLASESTAHAQSSKADSLLAVVKREPAEQPGDGERTDCEPVGLEPAVEQSSAASELAEASSEELAEAPTEAPSPEARDSKEDGRKFDFDACNEVPPAPKESSTSEGADQKMSSPEDDSDTKRLSKEEKGRSSCGRNFWVSGLSSTTRATDLKNLFSKYGKVVGAKVVTNARSPGARCYGFVTMSTAEEATKCINHLHKTELHGKMISVEKAKNEPVGKKTSDKRDSDGKKEKSSNSDRSTNLKRDDKCDRKDDAKKGDDGSGEKSKDQDDQKPGPSERSRATKSGSRGTERTVVMDKSKGVPVISVKTSGSKERASKSQDRKSASREKRSVVSFDKVKEPRKSRDSESHSRVRERSEREQRMQAQWEREERERLEIARERLAFQRQRLERERMERERLERERMHVEHERRREQERIHREREELRRQQELRYEQERRPAVRRPYDLDRRDDAYWPEAKRAALDERYHSDFNRQDRFHDFDHRDRGRYPDHSVDRREGSRSMMGEREGQHYPERHGGPERHGRDSRDGWGGYGSDKRMSEGRGLPPPPRRDWGDHGRREDDRSWQGTADGGMMDRDHKRWQGGERSMSGHSGPGHMMNRGGMSGRGSFAPGGASRGHPIPHGGMQGGFGGQSRGSRPSDARFTRRY
B3: SIN3A_HUMAN (protein, UniProt Q96ST3 1-1273, looked up)
Paired amphipathic helix …: MKRRLDDQESPVYAAQQRRIPGSTEAFPHQHRVLAPAPPVYEAVSETMQSATGIQYSVTPSYQVSAMPQSSGSHGPAIAAVHSSHHHPTAVQPHGGQVVQSHAHPAPPVAPVQGQQQFQRLKVEDALSYLDQVKLQFGSQPQVYNDFLDIMKEFKSQSIDTPGVISRVSQLFKGHPDLIMGFNTFLPPGYKIEVQTNDMVNVTTPGQVHQIPTHGIQPQPQPPPQHPSQPSAQSAPAPAQPAPQPPPAKVSKPSQLQAHTPASQQTPPLPPYASPRSPPVQPHTPVTISLGTAPSLQNNQPVEFNHAINYVNKIKNRFQGQPDIYKAFLEILHTYQKEQRNAKEAGGNYTPALTEQEVYAQVARLFKNQEDLLSEFGQFLPDANSSVLLSKTTAEKVDSVRNDHGGTVKKPQLNNKPQRPSQNGCQIRRHPTGTTPPVKKKPKLLNLKDSSMADASKHGGGTESLFFDKVRKALRSAEAYENFLRCLVIFNQEVISRAELVQLVSPFLGKFPELFNWFKNFLGYKESVHLETYPKERATEGIAMEIDYASCKRLGSSYRALPKSYQQPKCTGRTPLCKEVLNDTWVSFPSWSEDSTFVSSKKTQYEEHIYRCEDERFELDVVLETNLATIRVLEAIQKKLSRLSAEEQAKFRLDNTLGGTSEVIHRKALQRIYADKAADIIDGLRKNPSIAVPIVLKRLKMKEEEWREAQRGFNKVWREQNEKYYLKSLDHQGINFKQNDTKVLRSKSLLNEIESIYDERQEQATEENAGVPVGPHLSLAYEDKQILEDAAALIIHHVKRQTGIQKEDKYKIKQIMHHFIPDLLFAQRGDLSDVEEEEEEEMDVDEATGAVKKHNGVGGSPPKSKLLFSNTAAQKLRGMDEVYNLFYVNNNWYIFMRLHQILCLRLLRICSQAERQIEEENREREWEREVLGIKRDKSDSPAIQLRLKEPMDVDVEDYYPAFLDMVRSLLDGNIDSSQYEDSLREMFTIHAYIAFTMDKLIQSIVRQLQHIVSDEICVQVTDLYLAENNNGATGGQLNTQNSRSLLESTYQRKAEQLMSDENCFKLMFIQSQGQVQLTIELLDTEEENSDDPVEAERWSDYVERYMNSDTTSPELREHLAQKPVFLPRNLRRIRKCQRGREQQEKEGKEGNSKKTMENVDSLDKLECRFKLNSYKMVYVIKSEDYMYRRTALLRAHQSHERVSKRLHQRFQAWVDKWTKEHVPREMAAETSKWLMGEGLEGLVPCTTTCDTETLHFVSINKYRVKYGTVFKAP
B4: PRP16_HUMAN (protein, UniProt Q92620 2-1227, looked up)
Pre-mRNA-splicing factor …: GDTSEDASIHRLEGTDLDCQVGGLICKSKSAASEQHVFKAPAPRPSLLGLDLLASLKRREREEKDDGEDKKKSKVSSYKDWEESKDDQKDAEEEGGDQAGQNIRKDRHYRSARVETPSHPGGVSEEFWERSRQRERERREHGVYASSKEEKDWKKEKSRDRDYDRKRDRDERDRSRHSSRSERDGGSERSSRRNEPESPRHRPKDAATPSRSTWEEEDSGYGSSRRSQWESPSPTPSYRDSERSHRLSTRDRDRSVRGKYSDDTPLPTPSYKYNEWADDRRHLGSTPRLSRGRGRREEGEEGISFDTEEERQQWEDDQRQADRDWYMMDEGYDEFHNPLAYSSEDYVRRREQHLHKQKQKRISAQRRQINEDNERWETNRMLTSGVVHRLEVDEDFEEDNAAKVHLMVHNLVPPFLDGRIVFTKQPEPVIPVKDATSDLAIIARKGSQTVRKHREQKERKKAQHKHWELAGTKLGDIMGVKKEEEPDKAVTEDGKVDYRTEQKFADHMKRKSEASSEFAKKKSILEQRQYLPIFAVQQELLTIIRDNSIVIVVGETGSGKTTQLTQYLHEDGYTDYGMIGCTQPRRVAAMSVAKRVSEEMGGNLGEEVGYAIRFEDCTSENTLIKYMTDGILLRESLREADLDHYSAIIMDEAHERSLNTDVLFGLLREVVARRSDLKLIVTSATMDAEKFAAFFGNVPIFHIPGRTFPVDILFSKTPQEDYVEAAVKQSLQVHLSGAPGDILIFMPGQEDIEVTSDQIVEHLEELENAPALAVLPIYSQLPSDLQAKIFQKAPDGVRKCIVATNIAETSLTVDGIMFVIDSGYCKLKVFNPRIGMDALQIYPISQANANQRSGRAGRTGPGQCFRLYTQSAYKNELLTTTVPEIQRTNLANVVLLLKSLGVQDLLQFHFMDPPPEDNMLNSMYQLWILGALDNTGGLTSTGRLMVEFPLDPALSKMLIVSCDMGCSSEILLIVSMLSVPAIFYRPKGREEESDQIREKFAVPESDHLTYLNVYLQWKNNNYSTIWCNDHFIHAKAMRKVREVRAQLKDIMVQQRMSLASCGTDWDIVRKCICAAYFHQAAKLKGIGEYVNIRTGMPCHLHPTSSLFGMGYTPDYIVYHELVMTTKEYMQCVTAVDGEWLAELGPMFYSVKQAGKSRQENRRRAKEEASAMEEEMALAEEQLRARRQEQEKRSPLGSVRSTKIYTPGRKEQGEPMTPRRTPARFGL
B5: YTDC2_HUMAN (protein, UniProt Q9H6S0 1-1430, looked up)
3'-5' RNA helicase YTHDC2: MSRPSSVSPRQPAPGGGGGGGPSPCGPGGGGRAKGLKDIRIDEEVKIAVNIALERFRYGDQREMEFPSSLTSTERAFIHRLSQSLGLVSKSKGKGANRYLTVKKKDGSETAHAMMTCNLTHNTKHAVRSLIQRFPVTNKERTELLPKTERGNVFAVEAENREMSKTSGRLNNGIPQIPVKRGESEFDSFRQSLPVFEKQEEIVKIIKENKVVLIVGETGSGKTTQIPQFLLDDCFKNGIPCRIFCTQPRRLAAIAVAERVAAERRERIGQTIGYQIRLESRVSPKTLLTFCTNGVLLRTLMAGDSTLSTVTHVIVDEVHERDRFSDFLLTKLRDLLQKHPTLKLILSSAALDVNLFIRYFGSCPVIYIQGRPFEVKEMFLEDILRTTGYTNKEMLKYKKEKQQEEKQQTTLTEWYSAQENSFKPESQRQRTVLNVTDEYDLLDDGGDAVFSQLTEKDVNCLEPWLIKEMDACLSDIWLHKDIDAFAQVFHLILTENVSVDYRHSETSATALMVAAGRGFASQVEQLISMGANVHSKASNGWMALDWAKHFGQTEIVDLLESYSATLEFGNLDESSLVQTNGSDLSAEDRELLKAYHHSFDDEKVDLDLIMHLLYNICHSCDAGAVLIFLPGYDEIVGLRDRILFDDKRFADSTHRYQVFMLHSNMQTSDQKKVLKNPPAGVRKIILSTNIAETSITVNDVVFVIDSGKVKEKSFDALNFVTMLKMVWISKASAIQRKGRAGRCRPGICFRLFSRLRFQNMLEFQTPELLRMPLQELCLHTKLLAPVNCPIADFLMKAPEPPPALIVRNAVQMLKTIDAMDTWEDLTELGYHLADLPVEPHLGKMVLCAVVLKCLDPILTIACTLAYRDPFVLPTQASQKRAAMLCRKRFTAGAFSDHMALLRAFQAWQKARSDGWERAFCEKNFLSQATMEIIIGMRTQLLGQLRASGFVRARGGGDIRDVNTNSENWAVVKAALVAGMYPNLVHVDRENLVLTGPKEKKVRFHPASVLSQPQYKKIPPANGQAAAIKALPTDWLIYDEMTRAHRIANIRCCSAVTPVTILVFCGPARLASNALQEPSSFRVDGIPNDSSDSEMEDKTTANLAALKLDEWLHFTLEPEAASLLLQLRQKWHSLFLRRMRAPSKPWSQVDEATIRAIIAVLSTEEQSAGLQQPSGIGQRPRPMSSEELPLASSWRSNNSRKSSADTEFSDECTTAERVLMKSPSPALHPPQKYKDRGILHPKRGTEDRSDQSSLKSTDSSSYPSPCASPSPPSSGKGSKSPSPRPNMPVRYFIMKSSNLRNLEISQQKGIWSTTPSNERKLNRAFWESSIVYLVFSVQGSGHFQGFSRMSSEIGREKSQDWGSAGLGGVFKVEWIRKESLPFQFAHHLLNPWNDNKKVQISRDGQELEPLVGEQLLQLWERLPLGEKNTTD

This assay has as its system KDM4A-I71AzF. The assay can be described thus: CASI: photo-crosslinking with HEK293T cell extracts, StrepTactin enrichment and LC-MS/MS proteomics.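 Note: lysates from HEK293T cells pretreated with a KDM4 inhibitor to raise proteome methylation, affinity-purified after ±UV, gel-resolved, trypsin-digested, with exclusive unique peptides per protein averaged per condition.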 The format is binding, human. The note with it: sheet "Final results but with 0.01".
In the case of B1, the “Fold change (+UV/-UV)” value worked out at 0.2.

Regarding B2, the “Fold change (+UV/-UV)” value was 0.5. Take B3: the “Fold change (+UV/-UV)” value was determined as 1.333. With B4, the “Fold change (+UV/-UV)” value turned out to be 0. To B5 belongs 0.3333.

The record behind these values is article PMC10540216, “Activity Guided Azide-methyllysine Photo-trapping for Substrate Profiling of Lysine Demethylases” (Journal of the American Chemical Society, 2023).
